Experimental data reported in patent US20110097312A1, “ANTI-CANCER VACCINES” (BOARD OF REGENTS, THE UNIVERSITY OF TEXAS SYSTEM, priority 2008, published 2011).
Values belong to the molecule of their own block, whether it stands above or below them. Ends that are not written are not given here.

Legend:
peptide-loaded T2 cells = assay: Induction of primary CTL responses; cytotoxicity toward peptide-loaded T2 cells
[1] = molecular target: HLA-A2.1 (HLA-A*0201) with β2-microglobulin (human); assay: cell-based or functional assay
[2] = molecular target: HLA-A2.1 (HLA-A*0201) with β2-microglobulin (human); assay: peptide-binding assay: stabilisation of HLA-A2 on T2 cells, fluorescence relative to PR1
HLA-A2 = HLA-A2 (Homo sapiens, UniProt P04439, D140Y/D185E/D98H/E176V/E277Q/G131W/G231S/I119V/I121R/I166T/I218V/L300P/L318F/N151K/N90K/P208A/P217A/Q86G/Q94H/R138H/R169H/T345S); assay: Peptide-binding assay: HLA-A2 stabilization on T2 cells; conditions: HLA-A2 stabilization on T2 cells relative to PR1
Text: (§1) Nonameric peptides derived from cyclin E1 and cyclin E2 and predicted to bind to the HLA-A2 allele have similar amino acid sequences, differing only at position 7. Thus, the binding of CCNE1144-152 (cyclin E1 derived) and […] (cyclin E2 derived) was compared to that of PR1 by a peptide-binding assay. […] In 3 of 7 donors, CCNE1144-152-stimulated CTL lines killed both CCNE1144-152 and CCNE2144-152-pulsed T2 cells but not non-peptide-pulsed T2 cells and irrelevant peptide-pulsed T2 cells. In 4 of 7 same donors, CCNE2144-152-stimulated CTL lines killed both CCNE2144-152 and CCNE1144-152-pulsed T2 cells but not non-peptide-pulsed T2 cells and irrelevant peptide-pulsed T2 cells.

[3] = test system: peptide-pulsed T2 cells, HLA-A2 transfected K562; assay: Elicitation of cyclin E peptide-specific CTL lines and killing of targets; format: cell-based, human; conditions: for donors in which peptide-stimulated CTL lines killed CCNE1144-152 and CCNE2144-152-pulsed T2 cells: PBMCs from 7 HLA-A2 positive normal donors
Text: as §1
Thus, each peptide-specific CTLs can recognize both peptides with HLA-A2, but the immunogenicity of each peptide is different between individuals. Moreover, one of 4 CCNE1144-152-stimulated CTL lines which killed CCNE1144-152-pulsed T2 cell killed HLA-A2 transfected K562 leukemic cell line which is over-expressing cyclin E1 protein, but not non-transfected K562 leukemic cell line. Thus, CCNE1144-152-specific CTL can distinguish leukemic cell lines from normal PBMCs. From the data, it was concluded that cyclin E1/E2 derived peptides are tumor antigens, because 1) cyclin E1/E2 are highly over-expressed in hematological malignancy, 2) cyclin E1/E2 peptides can sufficiently bind to HLA-A2 to stimulate CTL and 3) CCLE1144-152 specific CTL preferentially kills leukemic cell lines HLA-A2 restrictively.

myeloid leukemia = conditions: human, in vivo
Text: PR1 peptide vaccine can elicit PR1-CTL immunity in patients with myeloid leukemia. […] To test this in refractory leukemia patients, a phase I/II vaccine study was initiated. HLA-A2+ patients with CML (interferon-resistant or relapsed after BMT), AML (smoldering relapse or ≧2nd CR) or MDS (RAEB or RAEBt) with no detectable antibodies to proteinase 3 (no detectable cANCA) were eligible. Patients that relapsed after BMT or those ineligible for BMT were also eligible for study. Pregnant patients, HIV+ patients, and those with known vasculitis were excluded. Patients were required to have immunosuppression (i.e. cyclosporine, steroids) discontinued 4 weeks prior to study entry.
Primary endpoints were (1) toxicity assessment including the induction of autoimmunity resembling Wegener's granulomatosis, the systemic vasculitis associated with cANCA antibodies; and (2) induction of an immune response assessed by cytokine flow cytometry (CFC) of γ-IFN and PR1/HLA-A2 tetramer staining of PBMC before and 3 weeks after the last vaccination. Secondarily, clinical responses were assessed by standard criteria with bone marrow biopsy, cytogenetic studies (standard chromosome banding) and molecular studies (PCR for bcr-abl or other known abnormalities such as t(15;17), inv16, etc.) 3 weeks after the last vaccination. Patients were seen and evaluated in clinic every 3 weeks during the study period. […]

[4] = molecular target: T1, HLA-A2.1 (HLA-A*0201) with β2-microglobulin (human); assay: T2 cell HLA-A2.1 stabilisation (flow cytometry with BB7.2) and I125-β2-microglobulin dissociation from the heterotrimer
T1 construct: In the first assay HLA-A2.1 stood on TAP-deficient T2 cells; In the second assay it was a heterotrimer of HLA-A2.1 heavy chain, peptide and I125-labeled β2-microglobulin in solution

Molecule: CC[C@H](C)[C@H](NC(=O)[C@H](CCCNC(=N)N)NC(=O)[C@H](CCSC)NC(=O)[C@@H](NC(=O)[C@H](CCC(N)=O)NC(=O)[C@H](CCC(=O)O)NC(=O)[C@H](Cc1ccccc1)NC(=O)[C@H](CC(C)C)NC(=O)[C@@H](N)CCCNC(=N)N)C(C)C)C(=O)O [MY4, RLFEQVMRI]
cytotoxicity of CTL line generated against the peptide toward MY2-loaded targets (peptide-loaded T2 cells): did not demonstrate any significant cytotoxicity

specific lysis of HLA-A2+ MCF-7 cells by PR1-CTL (calcein AM, 4 hours co-incubation) [1]: 17%
Molecule: BB7.2, mouse monoclonal antibody against HLA-A2.1

FI CCNE1144-152/FI PR1 [2]: 1.01
Molecule: CCNE1144-152 (cyclin E1 derived nonameric peptide) (from UniProt P24864 147-155)

FI peptide/FI PR1 (HLA-A2): 1.008
Molecule: CCNE1144-152: Nonameric peptide derived from cyclin E1, predicted to bind to the HLA-A2 allele (ILLDWLMEV)
peptide-stimulated CTL lines that killed HLA-A2 transfected K562 but not non-transfected K562 [3]: one of 4
donors in which peptide-stimulated CTL lines killed CCNE1144-152 and CCNE2144-152-pulsed T2 cells [3]: 3 of 7

FI peptide/FI PR1 (HLA-A2): 1.189
Molecule: CCNE2144-152: Nonameric peptide derived from cyclin E2, predicted to bind to the HLA-A2 allele (ILLDWLLEV)
donors in which peptide-stimulated CTL lines killed CCNE1144-152 and CCNE2144-152-pulsed T2 cells [3]: 4 of 7

Molecule: KLLLALAGL [MY2]
specific lysis of cognate peptide-loaded target cells by CTL line generated against the peptide (peptide-loaded T2 cells): high specific lysis

Molecule: VLQELNVTV [PR1, VLQELNVTV]
dose levels eliminated on the basis of toxicity in Phase I (myeloid leukemia): none of the doses were eliminated on the basis of toxicity

binding result [4]: binds
B1: MY3 peptide (LLSYFKQPV) from myeloperoxidase (peptide)
peptide: LLSYFKQPV

binding result [4]: binds
B2: MY4 peptide (RLFEQVMRI) from myeloperoxidase (peptide)
peptide: RLFEQVMRI

binding result [4]: binds
B3: MY5 peptide (LIQPFMFRL) from myeloperoxidase (peptide)
peptide: LIQPFMFRL

binding result [4]: binds
B4: MY1 peptide (SLWRRPFNV) from myeloperoxidase (peptide)
peptide: SLWRRPFNV

binding result [4]: binds
B5: MY2 peptide (KLLLALAGL) from myeloperoxidase (peptide)
peptide: KLLLALAGL

binding result [4]: binds
B6: PR1 peptide (VLQELNVTV), HLA-A2.1-restricted nonamer derived from proteinase 3 (peptide)
peptide: VLQELNVTV
